According to US20040038236A1:

Legend:
[1] = molecular target: GABAA receptor beta-2 subunit (GABRB2) (human) (UniProt P47870); test: cell-based or functional assay
[2] = molecular target: GABAA receptor alpha-1 subunit (GABRA1) (human) (UniProt P14867); test: cell-based or functional assay
Chain of GABAA receptor alpha-1 subunit (GABRA1) (human) (P14867 28-456): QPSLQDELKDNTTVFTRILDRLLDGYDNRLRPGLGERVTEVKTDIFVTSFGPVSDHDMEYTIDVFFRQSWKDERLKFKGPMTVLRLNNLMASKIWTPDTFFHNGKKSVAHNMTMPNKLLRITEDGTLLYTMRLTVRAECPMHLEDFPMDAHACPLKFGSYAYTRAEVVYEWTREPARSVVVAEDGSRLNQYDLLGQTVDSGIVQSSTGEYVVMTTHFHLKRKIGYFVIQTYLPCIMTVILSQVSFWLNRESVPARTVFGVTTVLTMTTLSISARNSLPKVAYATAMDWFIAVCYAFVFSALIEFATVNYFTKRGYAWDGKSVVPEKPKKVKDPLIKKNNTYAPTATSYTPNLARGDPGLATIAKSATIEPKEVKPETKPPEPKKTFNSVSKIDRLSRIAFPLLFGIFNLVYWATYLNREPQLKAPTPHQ

Chain of GABAA receptor beta-2 subunit (GABRB2) (human) (P47870 26-512): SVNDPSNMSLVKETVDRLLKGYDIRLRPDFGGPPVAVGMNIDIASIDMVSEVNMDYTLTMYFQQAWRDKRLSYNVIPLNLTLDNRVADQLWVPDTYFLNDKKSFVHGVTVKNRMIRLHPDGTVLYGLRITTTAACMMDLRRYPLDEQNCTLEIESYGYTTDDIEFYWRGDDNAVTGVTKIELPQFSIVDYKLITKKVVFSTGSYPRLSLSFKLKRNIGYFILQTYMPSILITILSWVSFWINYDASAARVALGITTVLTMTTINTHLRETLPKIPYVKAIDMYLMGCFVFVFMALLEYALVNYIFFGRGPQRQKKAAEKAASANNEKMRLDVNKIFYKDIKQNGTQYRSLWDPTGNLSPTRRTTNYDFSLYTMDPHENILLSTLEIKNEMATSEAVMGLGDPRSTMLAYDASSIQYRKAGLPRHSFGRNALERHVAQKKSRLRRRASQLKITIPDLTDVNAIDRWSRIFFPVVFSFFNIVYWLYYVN

Substance | partial inhibition of the GABA current by Zn2+ (10 µM), Xenopus oocytes, two-electrode voltage clamp [1] [%] | partial inhibition of the GABA current by Zn2+ (10 µM), Xenopus oocytes, two-electrode voltage clamp [2] [%]
GABAA receptor gamma-2 subunit R43Q mutant, GABRG2(R43Q) (from UniProt P18507 40-475) | 40 | 40
wild-type GABAA receptor gamma-2 subunit (GABRG2) (from UniProt P18507 40-475) | 37 | 37
